Assay results as given in patent US20250277023A1.

Biological target: CHO-PD-L1 (UniProt Q9NZQ7)
Assay: FACS binding; Fig. 23

CHO-PD-L1, sequence (Q9NZQ7 19-290): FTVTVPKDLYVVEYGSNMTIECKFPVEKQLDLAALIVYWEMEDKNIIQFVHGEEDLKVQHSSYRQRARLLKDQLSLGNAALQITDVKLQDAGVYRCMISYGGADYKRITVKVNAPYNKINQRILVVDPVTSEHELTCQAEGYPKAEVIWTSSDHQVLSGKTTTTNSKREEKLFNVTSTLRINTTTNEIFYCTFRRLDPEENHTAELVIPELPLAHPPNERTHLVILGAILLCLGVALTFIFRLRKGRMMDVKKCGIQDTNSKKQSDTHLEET

With R0514(avelumab-mIgG2a) the EC50 was 0.494 nM.
